Measurements reported in patent US20230212319A1, “NOVEL ANTIGEN BINDING DOMAINS AND SYNTHETIC ANTIGEN RECEPTORS INCORPORATING THE SAME” (University of Southern California, priority 2020, published 2023).

B1: SEQ ID NO: 22294: RZIP domain attached directly to truncated TCR chain [hTCRb-wt-opt2-6MD] with a short GS linker, without Ig or long linker (protein)
chain: MALPVTALLLPLALLLHAARPQLQLQESGPGLVKPSETLSLTCTVSGDSISSGDYYWGWIRQPPGKGLEWIGHIYYSGVTYYNPSLKSRVTISVDTSRNQFSLKLSSVTAADTAVYYCTREDSSNWRSRGQGTLVTVSSLEGSIPEDTFFPSPESSCDVKLVEKSFETDTNLNFQNLSVIGFRILLLKVAGFNLLMTLRLWSSRAKRSGSGVKQTLNFDLLKLAGDVESNPGPTSATMDWIWRILFLVGAATGAHSEFMDPDLEIRAAFLRQRNTALRTEVAELEQEVQRLENEVSQYETRYGPLGGGKTRGSGRADCGFTSESYQQGVLSATILYEILLGKATLYAVLVSALVLMAMVKRKDSRGRAKRSGSGATNFSLLKQAGDVEENPGPSRGHMTEYKPTVRLATRDDVPRAVRTLAAAFADYPATRHTVDPDRHIERVTELQELFLTRVGLDIGKVWVADDGAAVAVWTTPESVEAGAVFAEIGPRMAELSGSRLAAQQQMEGLLAPHRPKEPAWFLATVGVSPDHQGKGLGSAVVLPGVEAAERAGVPAFLETSAPRNLPFYERLGFTVTADVEVPEGPRTWCMTRKPGA
B2: SEQ ID NO: 22293: bispecific CD19xCD20 SAR with RZIP leucine zipper domain on hu-mR005-1 vL and CD20-VHH-USC1-2HCD26 on the vH domain (protein)
chain: MALPVTALLLPLALLLHAARPACMDPDLEIRAAFLRQRNTALRTEVAELEQEVQRLENEVSQYETRYGPLGGGKGTGGGGSGGGGSGGGGSEFDIQMTQSPSSLSASVGDRVTITCKASDHINNWLAWYQQKPGQAPKLLIYGATTLETGVPSRFSGSGSGTDYTLTISSLQPEDFATYYCQQSWNTPWTFGQGTKLEIKRLEDLKNVFPPEVAVFEPSEAEISHTQKATLVCLATGFYPDHVELSWWVNGKEVHSGVCTDPQPLKEQPALNDSRYCLSSRLRVSATFWQNPRNHFRCQVQFYGLSENDEWTQDRAKPVTQIVSAEAWGRADCGFTSESYQQGVLSATILYEILLGKATLYAVLVSALVLMAMVKRKDSRGRAKRSGSGATNFSLLKQAGDVEENPGPTSATMDWIWRILFLVGAATGAHSGPEVQLVESGGGLVQAGGSLRLSCAASGRTFSMGWFRQAPGKEREFVAAITYSGGSPYYADSVKGRFTISRDNAKNTVYLQMNSLKPEDTAVYYCAANPTYGSDWNAENWGQGTQVTVSSGSGGGGSGGGGSGGGGSFEQVQLQQPGAELVKPGASVKMSCKASGYAFSSYWINWMKQKPGQGLEWIGQIYPGDGDTNYNGKFKGRATLTADTSSSTAYMQLSSLTSEDSAVYFCARSITTVVGCAMDYWGQGTSVTVSSTRIQNPDPAVYQLRDSKSSDKSVCLFTDFDSQTNVSQSKDSDVYITDKCVLDMRSMDFKSNSAVAWSNKSDFACANAFNNSIIPEDTFFPSPESSCDVKLVEKSFETDTNLNFQNLSVIGFRILLLKVAGFNLLMTLRLWSSRAKRSGSGVKQTLNFDLLKLAGDVESNPGPSRGHMTEYKPTVRLATRDDVPRAVRTLAAAFADYPATRHTVDPDRHIERVTELQELFLTRVGLDIGKVWVADDGAAVAVWTTPESVEAGAVFAEIGPRMAELSGSRLAAQQQMEGLLAPHRPKEPAWFLATVGVSPDHQGKGLGSAVVLPGVEAAERAGVPAFLETSAPRNLPFYERLGFTVTADVEVPEGPRTWCMTRKPGA

How the values were obtained:
L363 cells = assay: JNG assay, co-culture with L363 cells; type: cell-based; conditions: L363 cells (BCMA+), only in the presence of SAR adaptor BCMA-FHVH-74-EZIP (SEQ ID NO: 23119)
Method in brief: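 Jurkat NFAT-GFP (JNG) cells stably transduced with SARs by lentivirus, with drug selection where the construct carried a resistance gene, then co-cultured with target cells at E:T ~1:2 for ~4–18 h. % GFP-positive cells measured by FACS against parental JNG; +/- to 5+ correspond to ~5–50% GFP-positive.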

LNCaP cells = assay: JNG assay, co-culture with LNCaP cells; type: cell-based; conditions: LNCaP (PSMA+) cells in the presence of SAR adaptor CD8SP-PSMA-USC76-chVH-EZIP (SEQ ID NO: 23118)
Method in brief: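 Scoring uses % GFP+ reporter cells above the parental control, where +/-, +, 2+, 3+, 4+ and 5+ correspond to about 5, 10, 20, 30, 40 and 50%. Effectors were SAR-expressing Jurkat NFAT-GFP cells cocultured with targets (E:T ~1:2, ~4–18 h).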

Molecule	GFP induction (L363 cells)	redirection to LNCaP cells (LNCaP cells)
B1	Weaker results	Weaker results
B2	robust induction of GFP	could be redirected
